IntAct's records for PubMed 21751375

How the values were obtained:
ctnb1_human CTNNB1 = ctnb1_human CTNNB1 (UniProt P35222)
ctnb1_mouse Ctnnb1 = ctnb1_mouse Ctnnb1 (UniProt Q02248)
Chain of ctnb1_mouse Ctnnb1 (Q02248 whole entry): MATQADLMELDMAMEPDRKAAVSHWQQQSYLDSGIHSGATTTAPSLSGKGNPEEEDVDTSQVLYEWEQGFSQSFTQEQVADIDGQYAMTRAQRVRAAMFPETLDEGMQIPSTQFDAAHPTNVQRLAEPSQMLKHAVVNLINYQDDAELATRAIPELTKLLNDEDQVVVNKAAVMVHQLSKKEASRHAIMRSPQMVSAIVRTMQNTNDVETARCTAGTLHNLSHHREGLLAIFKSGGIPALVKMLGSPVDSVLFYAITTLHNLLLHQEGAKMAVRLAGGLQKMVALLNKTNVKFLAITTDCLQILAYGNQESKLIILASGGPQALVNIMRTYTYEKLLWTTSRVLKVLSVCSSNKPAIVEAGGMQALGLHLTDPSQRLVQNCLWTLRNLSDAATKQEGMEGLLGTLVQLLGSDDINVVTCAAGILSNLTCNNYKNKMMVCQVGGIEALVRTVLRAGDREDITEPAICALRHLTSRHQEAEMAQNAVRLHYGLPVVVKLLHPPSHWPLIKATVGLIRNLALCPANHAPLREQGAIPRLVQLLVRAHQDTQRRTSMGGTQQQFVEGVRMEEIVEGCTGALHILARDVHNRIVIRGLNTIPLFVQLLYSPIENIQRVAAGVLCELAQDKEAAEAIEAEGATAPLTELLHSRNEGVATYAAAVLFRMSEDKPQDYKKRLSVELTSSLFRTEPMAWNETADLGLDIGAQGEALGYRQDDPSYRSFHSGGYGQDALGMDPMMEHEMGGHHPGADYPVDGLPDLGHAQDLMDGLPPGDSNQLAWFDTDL

Chain of ctnb1_human CTNNB1 (P35222 whole entry): as the sequence (Q02248 whole entry) above, with A706P counted along it

| Substance | effect of a mutation on the interaction (ctnb1_human CTNNB1) | effect of a mutation on the interaction (ctnb1_mouse Ctnnb1) |
| --- | --- | --- |
| CREB-binding protein (Homo sapiens), Q92793 S92A | decreasing interaction | – |
| Histone lysine acetyltransferase CREBBP (Mus musculus), P45481 S92A | – | decreasing interaction |
